B1: MMP1 (parent)
chain: MFFKDRFYMRTNPFYPEVELNFIS

Variants of: B1
Experiment: protein stability index of a GFP-peptide fusion (GPS, HEK-293T) (PSI 1-6); higher = more stable
Settings: c terminus: a fixed tail appended
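Note: lentivirally expressed fusions sorted by FACS into six bins by GFP to DsRed ratio, PSI derived from sequencing read proportions per bin multiplied by bin number.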

Row | Variant | protein stability index
1 | MFFKDWFYMRTNPFYPEVELNFIS [R6W] | 2.14
2 | MFFKDMFYMRTNPFYPEVELNFIS [R6M] | 2.35
3 | MFFKDFFYMRTNPFYPEVELNFIS [R6F] | 2.48
4 | MFFKDNFYMRTNPFYPEVELNFIS [R6N] | 2.96
5 | MFFKDCFYMRTNPFYPEVELNFIS [R6C] | 2.09
6 | MFFKDYFYMRTNPFYPEVELNFIS [R6Y] | 3.35
7 | MFFKDIFYMRTNPFYPEVELNFIS [R6I] | 3.27
8 | MFFKDHFYMRTNPFYPEVELNFIS [R6H] | 3.05
9 | MFFKDSFYMRTNPFYPEVELNFIS [R6S] | 2.64
10 | MFFKDKFYMRTNPFYPEVELNFIS [R6K] | 3.46
11 | MFFKDLFYMRTNPFYPEVELNFIS [R6L] | 2.39
12 | MFFKDVFYMRTNPFYPEVELNFIS [R6V] | 3.16
13 | MFFKDTFYMRTNPFYPEVELNFIS [R6T] | 3.77
14 | MFFKDEFYMRTNPFYPEVELNFIS [R6E] | 2.85
15 | MFFKDQFYMRTNPFYPEVELNFIS [R6Q] | 3.4
16 | MFFKDGFYMRTNPFYPEVELNFIS [R6G] | 3.07
17 | MFFKDRFYMDTNPFYPEVELNFIS [R10D] | 2.14
18 | MFFKDRFYMMTNPFYPEVELNFIS [R10M] | 2.88
19 | MFFKDRFYMTTNPFYPEVELNFIS [R10T] | 2.47
20 | MFFKDRFYMLTNPFYPEVELNFIS [R10L] | 2.79
21 | MFFKDRFYMPTNPFYPEVELNFIS [R10P] | 2.77
22 | MFFKDRFYMCTNPFYPEVELNFIS [R10C] | 3.2
23 | MFFKDRFYMKTNPFYPEVELNFIS [R10K] | 2.74
24 | MFFKDRFYMETNPFYPEVELNFIS [R10E] | 2.37

Row | Variant | protein stability index
25 | MFFKDRFYMATNPFYPEVELNFIS [R10A] | 1.52
26 | MFFKDRFYMHTNPFYPEVELNFIS [R10H] | 2.42
27 | MFFKDRFYMVTNPFYPEVELNFIS [R10V] | 3
28 | MFFKDRFYMQTNPFYPEVELNFIS [R10Q] | 2.17
29 | MFFKDRFYMGTNPFYPEVELNFIS [R10G] | 2.73
30 | MFFKDRFYMSTNPFYPEVELNFIS [R10S] | 3.42
31 | MFFKDRFYMNTNPFYPEVELNFIS [R10N] | 3.09
32 | MFFKSRFYMRTNPFYPEVELNFIS [D5S] | 2.64
33 | MFFKTRFYMRTNPFYPEVELNFIS [D5T] | 3.47
34 | MFFKWRFYMRTNPFYPEVELNFIS [D5W] | 1.94
35 | MFFKVRFYMRTNPFYPEVELNFIS [D5V] | 2.6
36 | MFFKQRFYMRTNPFYPEVELNFIS [D5Q] | 3.19
37 | MFFKPRFYMRTNPFYPEVELNFIS [D5P] | 3.51
38 | MFFKHRFYMRTNPFYPEVELNFIS [D5H] | 2.78
39 | MFFKMRFYMRTNPFYPEVELNFIS [D5M] | 2.63
40 | MFFKYRFYMRTNPFYPEVELNFIS [D5Y] | 2.38
41 | MFFKLRFYMRTNPFYPEVELNFIS [D5L] | 2.49
42 | MFFKNRFYMRTNPFYPEVELNFIS [D5N] | 2.77
43 | MFFKIRFYMRTNPFYPEVELNFIS [D5I] | 2.52
44 | MFFKDRFYERTNPFYPEVELNFIS [M9E] | 1.93
45 | MFFKDRFYKRTNPFYPEVELNFIS [M9K] | 2.59
46 | MFFKDRFYWRTNPFYPEVELNFIS [M9W] | 3.91
47 | MFFKDRFYLRTNPFYPEVELNFIS [M9L] | 1.86

Reference: the supplement of paper PMC10567573
